Reference: article PMC2958839, “Multiple FadD Acyl-CoA Synthetases Contribute to Differential Fatty Acid Degradation and Virulence in Pseudomonas aeruginosa” (PLoS ONE, 2010)

Legend:
Assay in all cases: purified protein
Conditions in all cases: 5 mM ATP, 0.5 mM CoASH, 30-300 µM FA, 10 mM MgCl2, 0.1% Triton X-100, pH 7.2, 37°C, printed unit mM conflicts with printed kcat/Km and FA range (implies µM)
CCCCCCCCCC(=O)O = tested on: CCCCCCCCCC(=O)O
Excerpt: (§1) DTNB (Ellman) assay of CoASH consumption, A412, Hanes-Woolf plot on FadD1
CCCCCCCCCCCC(=O)O = tested on: CCCCCCCCCCCC(=O)O
CCCCCC(=O)O = tested on: CCCCCC(=O)O
CCCCCCCC(=O)O = tested on: CCCCCCCC(=O)O
CCCCCCCCCCCCCC(=O)O = tested on: CCCCCCCCCCCCCC(=O)O
CCCCCCCCCCCCCCCC(=O)O = tested on: CCCCCCCCCCCCCCCC(=O)O
CCCC(=O)O = tested on: CCCC(=O)O
Excerpt: as §1

FadD1 (Pseudomonas aeruginosa PAO1)
kcat (CCCCCCCCCC(=O)O): 0.119 s⁻¹ | kcat (CCCCCCCCCCCC(=O)O): 0.134 s⁻¹ | kcat (CCCCCC(=O)O): 0.137 s⁻¹ | kcat (CCCCCCCC(=O)O): 0.128 s⁻¹ | kcat (CCCCCCCCCCCCCC(=O)O): 0.134 s⁻¹ | kcat (CCCCCCCCCCCCCCCC(=O)O): 0.158 s⁻¹ | kcat (CCCC(=O)O): 0.141 s⁻¹

FadD2 (Pseudomonas aeruginosa PAO1)
kcat (CCCCCCCCCCCC(=O)O): 0.141 s⁻¹ | kcat (CCCCCC(=O)O): 0.164 s⁻¹ | kcat (CCCCCCCC(=O)O): 0.210 s⁻¹ | kcat (CCCCCCCCCCCCCC(=O)O): 0.112 s⁻¹ | kcat (CCCCCCCCCCCCCCCC(=O)O): 0.102 s⁻¹
